# Test results reported in IntAct's records for PubMed 24012335.
# B1: Serine/threonine-protein kinase Warts (Drosophila melanogaster (Fruit fly)), Q9VA38 (parent)
# chain: MHPAGEKRGGRPNDKYTAEALESIKQDLTRFEVQNNHRNNQNYTPLRYTATNGRNDALTPDYHHAKQPMEPPPSASPAPDVVIPPPPAIVGQPGAGSISVSGVGVGVVGVANGRVPKMMTALMPNKLIRKPSIERDTASSHYLRCSPALDSGAGSSRSDSPHSHHTHQPSSRTVGNPGGNGGFSPSPSGFSEVAPPAPPPRNPTACSAATPPPPVPPTSQAYVKRRSPALNNRPPAIAPPTQRGNSPVITQNGLKNPQQQLTQQLKSLNLYPGGGSGAVVEPPPPYLIQGGAGGAAPPPPPPSYTASMQSRQSPTQSQQSDYRKSPSSGIYSATSAGSPSPITVSLPPAPLAKPQPRVYQARSQQPIIMQSVKSTQVQKPVLQTAVAPQSPSSASASNSPVHVLAAPPSYPQKSAAVVQQQQQAAAAAHQQQHQHQQSKPPTPTTPPLVGLNSKPNCLEPPSYAKSMQAKAATVVQQQQQQQQQQQQVQQQQVQQQQQQQQQQLQALRVLQAQAQRERDQRERDQRERERDQQKLANGNPGRQMLPPPPYQSNNNNNSEIKPPSCNNNNIQISNSNLATTPPIPPAKYNNNSSNTGANSSGGSNGSTGTTASSSTSCKKIKHASPIPERKKISKEKEEERKEFRIRQYSPQAFKFFMEQHIENVIKSYRQRTYRKNQLEKEMHKVGLPDQTQIEMRKMLNQKESNYIRLKRAKMDKSMFVKLKPIGVGAFGEVTLVSKIDTSNHLYAMKTLRKADVLKRNQVAHVKAERDILAEADNNWVVKLYYSFQDKDNLYFVMDYIPGGDLMSLLIKLGIFEEELARFYIAEVTCAVDSVHKMGFIHRDIKPDNILIDRDGHIKLTDFGLCTGFRWTHNSKYYQENGNHSRQDSMEPWEEYSENGPKPTVLERRRMRDHQRVLAHSLVGTPNYIAPEVLERSGYTQLCDYWSVGVILYEMLVGQPPFLANSPLETQQKVINWEKTLHIPPQAELSREATDLIRRLCASADKRLGKSVDEVKSHDFFKGIDFADMRKQKAPYIPEIKHPTDTSNFDPVDPEKLRSNDSTMSSGDDVDQNDRTFHGFFEFTFRRFFDDKQPPDMTDDQAPVYV
# partner: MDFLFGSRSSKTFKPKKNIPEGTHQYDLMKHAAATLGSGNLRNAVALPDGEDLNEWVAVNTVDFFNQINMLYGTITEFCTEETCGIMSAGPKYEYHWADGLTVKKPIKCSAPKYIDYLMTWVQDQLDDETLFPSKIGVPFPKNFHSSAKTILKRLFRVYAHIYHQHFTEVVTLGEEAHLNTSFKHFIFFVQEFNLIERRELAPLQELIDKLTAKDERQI
# B2: Serine/threonine-protein kinase LATS1 (Homo sapiens), O95835 (parent)
# chain: MKRSEKPEGYRQMRPKTFPASNYTVSSRQMLQEIRESLRNLSKPSDAAKAEHNMSKMSTEDPRQVRNPPKFGTHHKALQEIRNSLLPFANETNSSRSTSEVNPQMLQDLQAAGFDEDMVIQALQKTNNRSIEAAIEFISKMSYQDPRREQMAAAAARPINASMKPGNVQQSVNRKQSWKGSKESLVPQRHGPPLGESVAYHSESPNSQTDVGRPLSGSGISAFVQAHPSNGQRVNPPPPPQVRSVTPPPPPRGQTPPPRGTTPPPPSWEPNSQTKRYSGNMEYVISRISPVPPGAWQEGYPPPPLNTSPMNPPNQGQRGISSVPVGRQPIIMQSSSKFNFPSGRPGMQNGTGQTDFMIHQNVVPAGTVNRQPPPPYPLTAANGQSPSALQTGGSAAPSSYTNGSIPQSMMVPNRNSHNMELYNISVPGLQTNWPQSSSAPAQSSPSSGHEIPTWQPNIPVRSNSFNNPLGNRASHSANSQPSATTVTAITPAPIQQPVKSMRVLKPELQTALAPTHPSWIPQPIQTVQPSPFPEGTASNVTVMPPVAEAPNYQGPPPPYPKHLLHQNPSVPPYESISKPSKEDQPSLPKEDESEKSYENVDSGDKEKKQITTSPITVRKNKKDEERRESRIQSYSPQAFKFFMEQHVENVLKSHQQRLHRKKQLENEMMRVGLSQDAQDQMRKMLCQKESNYIRLKRAKMDKSMFVKIKTLGIGAFGEVCLARKVDTKALYATKTLRKKDVLLRNQVAHVKAERDILAEADNEWVVRLYYSFQDKDNLYFVMDYIPGGDMMSLLIRMGIFPESLARFYIAELTCAVESVHKMGFIHRDIKPDNILIDRDGHIKLTDFGLCTGFRWTHDSKYYQSGDHPRQDSMDFSNEWGDPSSCRCGDRLKPLERRAARQHQRCLAHSLVGTPNYIAPEVLLRTGYTQLCDWWSVGVILFEMLVGQPPFLAQTPLETQMKVINWQTSLHIPPQAKLSPEASDLIIKLCRGPEDRLGKNGADEIKAHPFFKTIDFSSDLRQQSASYIPKITHPTDTSNFDPVDPDKLWSDDNEEENVNDTLNGWYKNGKHPEHAFYEFTFRRFFDDNGYPYNYPKPIEYEYINSQGSEQQSDEDDQNTGSEIKNRDLVYV
# B3: Merlin (Homo sapiens), P35240 (parent)
# chain: MAGAIASRMSFSSLKRKQPKTFTVRIVTMDAEMEFNCEMKWKGKDLFDLVCRTLGLRETWFFGLQYTIKDTVAWLKMDKKVLDHDVSKEEPVTFHFLAKFYPENAEEELVQEITQHLFFLQVKKQILDEKIYCPPEASVLLASYAVQAKYGDYDPSVHKRGFLAQEELLPKRVINLYQMTPEMWEERITAWYAEHRGRARDEAEMEYLKIAQDLEMYGVNYFAIRNKKGTELLLGVDALGLHIYDPENRLTPKISFPWNEIRNISYSDKEFTIKPLDKKIDVFKFNSSKLRVNKLILQLCIGNHDLFMRRRKADSLEVQQMKAQAREEKARKQMERQRLAREKQMREEAERTRDELERRLLQMKEEATMANEALMRSEETADLLAEKAQITEEEAKLLAQKAAEAEQEMQRIKATAIRTEEEKRLMEQKVLEAEVLALKMAEESERRAKEADQLKQDLQEAREAERRAKQKLLEIATKPTYPPMNPIPAPLPPDIPSFNLIGDSLSFDFKDTDMKRLSMEIEKEKVEYMEKSKHLQEQLNELKTEIEALKLKERETALDILHNENSDRGGSSKHNTIKKLTLQSAKSRVAFFEEL
# partner: B2 chain
# B4: Serine/threonine-protein kinase Warts (Drosophila melanogaster (Fruit fly)), Q9VA38 (parent)
# chain: B1 chain
# partner: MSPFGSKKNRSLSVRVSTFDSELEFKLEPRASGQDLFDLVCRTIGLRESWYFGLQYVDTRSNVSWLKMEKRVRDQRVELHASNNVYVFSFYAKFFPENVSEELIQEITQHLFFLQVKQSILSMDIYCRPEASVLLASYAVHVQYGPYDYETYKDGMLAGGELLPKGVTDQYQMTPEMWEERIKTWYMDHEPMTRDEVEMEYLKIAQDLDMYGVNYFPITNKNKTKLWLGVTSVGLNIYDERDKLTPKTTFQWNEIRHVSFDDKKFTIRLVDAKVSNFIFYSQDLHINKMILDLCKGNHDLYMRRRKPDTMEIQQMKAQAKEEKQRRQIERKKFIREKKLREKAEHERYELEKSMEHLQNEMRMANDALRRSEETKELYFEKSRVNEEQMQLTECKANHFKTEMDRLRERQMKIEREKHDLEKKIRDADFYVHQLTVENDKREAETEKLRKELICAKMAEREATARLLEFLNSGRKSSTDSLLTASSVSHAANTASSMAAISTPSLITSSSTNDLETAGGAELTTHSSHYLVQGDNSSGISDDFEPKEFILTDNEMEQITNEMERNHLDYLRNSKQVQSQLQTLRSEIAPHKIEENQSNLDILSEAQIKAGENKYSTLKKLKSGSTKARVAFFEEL
# Variants of: B1
# Conditions: with mob1_drome mats
row,effect of a mutation on the interaction,Variant
1,disrupting interaction strength,R708A

# Variants of: B2
# Conditions: with merl_human NF2, P35240
row,effect of a mutation on the interaction,Variant
1,disrupting interaction strength,A77P;I81T;L85P

# Variants of: B2
# Conditions: with NF2, P35240-1
row,effect of a mutation on the interaction,Variant
1,disrupting interaction strength,A77P;I81T;L85P

# Variants of: B3
# Conditions: with lats1_human LATS1, O95835
row,effect of a mutation on the interaction,Variant
1,disrupting interaction strength,L46R
2,disrupting interaction strength,F62S
3,disrupting interaction strength,L64P
4,disrupting interaction strength,L141P

# Variants of: B4
# Conditions: with merh_drome Mer
row,effect of a mutation on the interaction,Variant
1,disrupting interaction strength,A20P;I24T;L28P
